The data set in a line: yeast display, Sf9 membrane polyspecificity reagent, FACS + sequencing; frameworks hold sequencing errors. Put shortly: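 Polyreactivity labels are assigned by the sorting gate from which each nanobody was recovered. The gates were low and high (top ~1%), set on anti-HA fluorescence for expression and streptavidin fluorescence for reagent binding. Before sorting, galactose-induced (36–48 hours) yeast display cells were stained for 1 hour at 4 °C with 10% biotinylated, detergent-solubilized Sf9 membrane reagent.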
“QVQLVESGGGLVQAGGSLRLSCAASGSIFGTYPMGWYRQAPGKERELVAAITRRGGSTFYADSVKGRFTISRDNAKNTVYLQMNSLKPEDTAVYYCAAPPYYWGQGTQVTVSS”: the “polyreactivity (PSR sort gate)” value was “high polyreactivity”.

For “QVQLVESGGGLVQAGGSLRLSCAASGSIFGTYTMGWYRQAPGKERELVAAISRSGTSTYYADSVKGRFTISRDNAKNTVYLQMNSLKPEDTAVYYCAASPDPYWRRMDYWGQGTQVTVSS”, the “polyreactivity (PSR sort gate)” value was “high polyreactivity”.

Consider “QVQLVESGGGLVQAGGSLRLSCAASGSIFGTYTMGWYRQAPGKERELVASISRRGGSTYYADSVKGRFTISRDNAKNTVYLQMNSLKPEDTAVYYCAKPVYYLPGEYDYWGQGTQVTVSS”, for which the “polyreactivity (PSR sort gate)” value is reported as “high polyreactivity”.

For the sequence “QVQLVESGGGLVQAGGSLRLSCAASGSIFGVNAMGWYRQAPGKERELVAAISRGTSTSYADSVKGRFTISRDNAKNTVYLQMNSLKPEDTAVYYCAAEVYWRGWWYGYWGQGTQVTVSS”, the “polyreactivity (PSR sort gate)” value is recorded as “high polyreactivity”.

On to “QVQLVESGGGLVQAGGSLRLSCAASGSIFGVYAMGWYRQAPGKERELVAAISQSGGRTYYADSVKGRFTISRDNAKNTVYLQMNSLKPEDTAVYYCAAVVFNVYRRYWGQGTQVTVSS”, for which the “polyreactivity (PSR sort gate)” value is listed as “high polyreactivity”.

On to “QVQLVESGGGLVQAGGSLRLSCAASGSIFGVYDMGWYRQAPGKERELVAVINSNGGSTYYADSVKGRFTISRDNAKNTVYLQMNSLNPEDTAVYYCAADYQSYVYIGYGYWGQGTQVTVSS”, for which the “polyreactivity (PSR sort gate)” value is reported as “low polyreactivity”.

On to “QVQLVESGGGLVQAGGSLRLSCAASGSIFGVYTMGWYRQAPGKERELVAAITSAGSTYAYSVKGRFTISRDNAKNTVYLQMNSLKPEDTAVYYCNAQSVLLSLRVELREPHEYWGQGTQVTVSS”, for which the “polyreactivity (PSR sort gate)” value was “low polyreactivity”.

Regarding “QVQLVESGGGLVQAGGSLRLSCAASGSIFGWNTMGWYRQAPGKERELVAAITWTGGRTYYADSVKGRFTISRDNAKNTVYLQMNSLKPEDTAVYYCNALRVIRGGIKGDYWGQGTQVTVSS”, the “polyreactivity (PSR sort gate)” value is “high polyreactivity”.

For the sequence “QVQLVESGGGLVQAGGSLRLSCAASGSIFGWYAMGWYRQAPGKERELVAAISSSDGSTYYADSVKGRFTISRDNAKNTVYLQMNSLKPEDTAVYYCATDSAFTYAQYDYWGQGTQVTVSS”, the “polyreactivity (PSR sort gate)” value is “low polyreactivity”.

With “QVQLVESGGGLVQAGGSLRLSCAASGSIFGWYAMGWYRQAPGKVRELVATITDRGGRTYYADSVKGRFTISRDNAKNTVYLQMNSLTPEDTAVYDCAADAWPFEAESDSWGQGTQVTVSS”, the “polyreactivity (PSR sort gate)” value is listed as “low polyreactivity”.

“QVQLVESGGGLVQAGGSLRLSCAASGSIFGWYVMGWYRQEAGKERELVAANSSVGSTYYADSVKGRFTISRDNAKNTVYLQMNSLKPEDTAVYYCAKLRYPYLFWDDSEYWGQGTQVTVSS”: the “polyreactivity (PSR sort gate)” value is listed as “low polyreactivity”.

In the case of “QVQLVESGGGLVQAGGSLRLSCAASGSIFGYAMGWYRQAPGKARELVAAISFSGVSTYYADSVKGRFTITRDNAKNTVYLQMNSLKPEDTAGYYCNAYSDGDEDYWGQGTQVNVSS”, the “polyreactivity (PSR sort gate)” value is on record as “low polyreactivity”.

“QVQLVESGGGLVQAGGSLRLSCAASGSIFGYAMGWYRQAPGKERELVAAITVSGGRTYYADSVKGRFTISRDNAKNTVYLQMNSLKPEDTAVYYCAAYYIKGYSPGYWGQGTQVTVSS”: the “polyreactivity (PSR sort gate)” value is reported as “high polyreactivity”.

For the sequence “QVQLVESGGGLVQAGGSLRLSCAASGSIFGYNAMGGYRHAPGKEREFVAAINSGGSTYYADSVKGRFTISRDNAKITVYLQLNSLKPEDTAVYYCRRRNVYSTRRYEYWGQGTQVTVSS”, the “polyreactivity (PSR sort gate)” value is on record as “high polyreactivity”.

As to “QVQLVESGGGLVQAGGSLRLSCAASGSIFGYNAMGWYRQAPGKERELVAAINYNGGRTYYADSVKGRFTISRDNAKNTVYLQMNSLKPEDTAVYYCATQGRSLYYRYDYWGQGTQVTVSS”, the “polyreactivity (PSR sort gate)” value is “high polyreactivity”.

As to “QVQLVESGGGLVQAGGSLRLSCAASGSIFGYNAMGWYRQAPGKERELVAAIRRSGSSTYYADSVKGRFTISRDNAKNTVYLQMNSLKPEDTAVYYCNRVPRPVADQEYDYWGQGTQVTVSS”, the “polyreactivity (PSR sort gate)” value is “low polyreactivity”.

Regarding “QVQLVESGGGLVQAGGSLRLSCAASGSIFGYNAMGWYRQAPGKERELVAAISLSGSSTYYADSVKGRFTISRDNAKNTVYLQMNSLKPEDTAVYYCAALYQWRRVFYTSYGYWGQGTQVTGSS”, the “polyreactivity (PSR sort gate)” value is reported as “high polyreactivity”.

Turning to “QVQLVESGGGLVQAGGSLRLSCAASGSIFGYNAMGWYRQAPGKERELVAAISLTTGSTYYADSVKGRFTISRDNAKNTVYLQMNSLKPEDTAVYYCAAVDADYYYWGQGTQVTVSS”, the “polyreactivity (PSR sort gate)” value is recorded as “high polyreactivity”.

On to “QVQLVESGGGLVQAGGSLRLSCAASGSIFGYNDMGWYRQAPGKERELVAAITTSGDSTYYADSVKGRFTISRDNAKNTVYLQMTSLKPEDTAVYYCNGDGEVVDWYHPYYVEYDYWGQGTQVTVSS”, for which the “polyreactivity (PSR sort gate)” value is given as “low polyreactivity”.

Take “QVQLVESGGGLVQAGGSLRLSCAASGSIFGYNTMGWYRQAPGKERDLVADISVSGDDTYYADSVKGRFTISRDNAKITVYLQMNSLKPEDTAVYYCNADEYYGYYHTYDYWGQGTQVTVSS”: the “polyreactivity (PSR sort gate)” value was “low polyreactivity”.

Turning to “QVQLVESGGGLVQAGGSLRLSCAASGSIFGYNVMGWYRQAPGKERELVAAINYSGGRTYYADSVKGRFTISRDNAKNTVYLEMNSLKPEDTAVYYCAAVPLSRYTVFNYDYWGQGTQVTVSS”, the “polyreactivity (PSR sort gate)” value is on record as “high polyreactivity”.

Take “QVQLVESGGGLVQAGGSLRLSCAASGSIFGYNVMGWYRQAPGKEWELVAAITYSGGSTYYADSVKGRFTISRDNAKNTVYLQMNSLKPEDTAVFYCNAVTLRRIYSNPEYDSWGQGTQVSVSS”: the “polyreactivity (PSR sort gate)” value is “high polyreactivity”.

Turning to “QVQLVESGGGLVQAGGSLRLSCAASGSIFGYYAMGWSRQAPGKEREVVAAISASGGSTYYADSVKGRFTISRDTAKNTVYLQMNSLKPEDTAVYYCAAVRSVTYIWARYPYGLEYWGQGTQVTVSS”, the “polyreactivity (PSR sort gate)” value is given as “high polyreactivity”.

Consider “QVQLVESGGGLVQAGGSLRLSCAASGSIFGYYAMGWYRPAPGKERELVAAISGSAGTTYYADSVKGRFTISRDNAKNTVYLQMNSLKPEDTAVYYCAKYYPYIQADYGYDYWGQGTQVTVSS”, for which the “polyreactivity (PSR sort gate)” value was “low polyreactivity”.

Take “QVQLVESGGGLVQAGGSLRLSCAASGSIFGYYAMGWYRQAPGKEREFVATISTSGVSTYYADSVKGRFTISRDNAKNTVYLQMNSLKPEDTAVYYCNAYLWYTGWDYDGEDYWGQGTQVTVSS”: the “polyreactivity (PSR sort gate)” value is recorded as “low polyreactivity”.

Turning to “QVQLVESGGGLVQAGGSLRLSCAASGSIFGYYAMGWYRQAPGKERELVAAIDSGGSTYYADSVKGRFTISRDNAKNTVYLQMNSLKPEDTAVYYCATDYSGLRYDYWGQGTQVTVSS”, the “polyreactivity (PSR sort gate)” value is listed as “low polyreactivity”.

For “QVQLVESGGGLVQAGGSLRLSCAASGSIFGYYAMGWYRQAPGKERELVAAIRRSGGSTYYADSVKGRFTISRDNAKNTVYLQMNSLKPEDTAVYYCAARFKSSDWHYYYWGQGTQVTVSS”, the “polyreactivity (PSR sort gate)” value is “high polyreactivity”.

Consider “QVQLVESGGGLVQAGGSLRLSCAASGSIFGYYAMGWYRQAPGKERELVAAIRTTGGRTYYADSVKGRFTISRDNAKNTVYLQMNSLKPEDTAVYYCNALQAGVSYDYWGQGTQVTVSS”, for which the “polyreactivity (PSR sort gate)” value was “high polyreactivity”.

Regarding “QVQLVESGGGLVQAGGSLRLSCAASGSIFGYYAMGWYRQAPGKERELVAAISGSGGSTYYADSVKGRFTISRDNAKNTVYLQMNSLKPEDTAVYYCDRVRGGYDKMYYWGQGTQVTVSS”, the “polyreactivity (PSR sort gate)” value was “high polyreactivity”.

With “QVQLVESGGGLVQAGGSLRLSCAASGSIFGYYAMGWYRQAPGKERELVAAISSSGASTYYADSVKGRFTISRDNAKNTVYLQMNSLKPEDTAVYYCNADRRYPTRGGYWGQGTQVTVSS”, the “polyreactivity (PSR sort gate)” value was “high polyreactivity”.

Take “QVQLVESGGGLVQAGGSLRLSCAASGSIFGYYAMGWYRQAPGKERELVAAISYSGGSTYYADSVKGRFTISRDNAKNTVYVQMNSLKPEDTAVYYCAARYASTPYARFGYWGQGSQVTVSS”: the “polyreactivity (PSR sort gate)” value is given as “high polyreactivity”.

In the case of “QVQLVESGGGLVQAGGSLRLSCAASGSIFGYYAMGWYRQAPGKERELVAAITTRGGRTYYADSVKGRFTISRDNAKNTVYLQMNSLNPEDTAVYYCAARTGRGRYDYWGQGTQVTVSS”, the “polyreactivity (PSR sort gate)” value is given as “high polyreactivity”.

Turning to “QVQLVESGGGLVQAGGSLRLSCAASGSIFGYYAMGWYRQAPGKERELVAAITWRGGTYYADSVKGRFTISRDNAKNTVYLQMNSLKPEDTAVYYCAAPRLATYQWYDYWGQGTQVTVSS”, the “polyreactivity (PSR sort gate)” value is on record as “high polyreactivity”.

In the case of “QVQLVESGGGLVQAGGSLRLSCAASGSIFGYYAMGWYRQAPGKERELVAAITYSGGRTYYADSVKGRFTISRDNAKNTVYLQMNSLKPEDTAVYYCARAPPGDRFVRYDYWGQGTQVTVSS”, the “polyreactivity (PSR sort gate)” value is reported as “high polyreactivity”.

Take “QVQLVESGGGLVQAGGSLRLSCAASGSIFGYYAMGWYRQAPGKERELVASITRSGDTTYYADSVKGRFTISRDNAKNTVYLQMNSLKPEDTAVYYCAARRWRWYYDGFVRMDYWGQGTQVTVSS”: the “polyreactivity (PSR sort gate)” value was “high polyreactivity”.

As to “QVQLVESGGGLVQAGGSLRLSCAASGSIFGYYAMGWYRQAPGKERELVASITSDTSTNYADSVKGRFTISRDNAQNTVYLQMNSLKPEDTAVYYCNARIAKWKRGYSSTFDYWGQGTQVTVSS”, the “polyreactivity (PSR sort gate)” value is reported as “low polyreactivity”.

With “QVQLVESGGGLVQAGGSLRLSCAASGSIFGYYAMGWYSQAPGKERELVAAFTASGGSTYYADSVKGRFTISRDNAKNTVYFQMNSLKPEDTAVYYCAAGTHTDYGRYYYWGQGTQVTVSS”, the “polyreactivity (PSR sort gate)” value was “low polyreactivity”.

As for “QVQLVESGGGLVQAGGSLRLSCAASGSIFGYYAMGWYTQAPGKERELVASITRGGSTYYADSVKGRFTISRDNAKNTVYLQMNSLKPEDTAVYYCAAAQWWFRVRGARYYYWGQGTQVTVSS”, the “polyreactivity (PSR sort gate)” value is listed as “high polyreactivity”.

Take “QVQLVESGGGLVQAGGSLRLSCAASGSIFGYYTIGWYRQAPGKEREFVAAITQSGGSTYYADSVKGRFTISRDNAKNTVYLQMNSLKPEDTAVYYCAKQGYLKWGGTGDYWGQGTQVTVSS”: the “polyreactivity (PSR sort gate)” value is reported as “high polyreactivity”.

For “QVQLVESGGGLVQAGGSLRLSCAASGSIFGYYTMGWYIQAPGKERELVAAITSGGSTNYADSVKGRFTISRDNAKNTVYLQMNSLKPEDTAVYYCAKVSYYPWRYDYWGQGTQVTVSS”, the “polyreactivity (PSR sort gate)” value was “low polyreactivity”.

For “QVQLVESGGGLVQAGGSLRLSCAASGSIFGYYTMGWYIQAPGKERELVATITSGGSTYYADSVKGRFTISRDNAKNSVSLQMNSLKPEDTAVYYCNADRYWRVYWGQGTQVTVSS”, the “polyreactivity (PSR sort gate)” value was “high polyreactivity”.

For the origin of these results see the nanobody polyreactivity screen of Harvey et al. (2022).
